Results as given in PMC4660213, “Identification and characterization of multiple rubisco activases in chemoautotrophic bacteria” (Nature Communications, 2015).

Assays:
[1] = target: Acidithiobacillus ferrooxidans form II rubisco (Acidithiobacillus ferrooxidans ATCC 23270) (UniProt B7J5E3)
[2] = target: AfM with E75 mutated to alanine (Acidithiobacillus ferrooxidans ATCC 23270)
[3] = target: Acidithiobacillus ferrooxidans CbbQ2 (Acidithiobacillus ferrooxidans ATCC 23270) (UniProt B7J5E4); assay: quantitative densitometry of SDS-PAGE; Coomassie-stained SDS–PAGE of the purified complexes (4 µg per lane), assuming equal binding of the dye
[4] = target: Acidithiobacillus ferrooxidans CbbQ2 (Acidithiobacillus ferrooxidans ATCC 23270) (UniProt B7J5E4)
[5] = target: Acidithiobacillus ferrooxidans CbbQ2 (Acidithiobacillus ferrooxidans ATCC 23270) (UniProt B7J5E4); assay: SEC + other: glycerol gradient sedimentation; combined Stokes radius/sedimentation analysis: Stokes radius from gel filtration, Svedberg coefficient from 5–30% glycerol gradients in buffer A (1 mg/ml, 35,000 r.p.m., 16 h, 4 °C); M=4,205 (SRs)
[6] = target: Acidithiobacillus ferrooxidans form I rubisco (L8S8) (Acidithiobacillus ferrooxidans ATCC 23270) (UniProt B7JA24)

For “CbbQ2-CbbO2 hetero-oligomer (CbbQ6CbbO1) (complex)”, the stimulation of Q2O2 ATPase activity (0.27 µM oligomer) by saturating concentrations of stably inhibited AfM (ER, ECMC) [1] was 20 fold and the rubisco activase activity of Q2O2 on AfM with E75 mutated to alanine [2] was 80 % reduction.

With “C-terminally truncated CbbO2 (residues 1–444) (domain or fragment)” the stoichiometry N (CbbO fragments per 6 CbbQ subunits) [3] was 3.5, the basal ATPase activity of the Q2O2ΔC444 complex (min^−1 protomer CbbQ^−1) [4] was < 1 and the stoichiometry N (CbbO fragment per CbbQ hexamer) [5] was 1.

“CbbQ1-CbbO1 hetero-oligomer (CbbQ6CbbO1) (complex)” showed a stimulation of Q1O1 ATPase activity (0.27 µM oligomer) by saturating concentrations of stably inhibited AfLS (ER, ECMC) [6] of 2 fold.
